In publication PMC4917879 (Biochemistry, 2016):

T1: Formate dehydrogenase from Candida boidinii (CbFDH) ([Candida] boidinii, UniProt A0A0A1EQY0)
T1 sequence (A0A0A1EQY0 1-364): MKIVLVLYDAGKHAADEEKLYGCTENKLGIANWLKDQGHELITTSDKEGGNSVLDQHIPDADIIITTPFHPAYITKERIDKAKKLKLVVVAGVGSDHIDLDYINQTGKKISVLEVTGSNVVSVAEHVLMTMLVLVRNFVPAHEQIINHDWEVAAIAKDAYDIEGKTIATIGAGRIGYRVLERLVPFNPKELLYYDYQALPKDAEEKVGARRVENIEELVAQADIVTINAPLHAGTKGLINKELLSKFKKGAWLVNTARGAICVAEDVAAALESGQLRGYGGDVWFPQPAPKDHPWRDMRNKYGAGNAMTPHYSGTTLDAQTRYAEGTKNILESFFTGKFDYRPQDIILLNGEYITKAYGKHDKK

B1: Formate dehydrogenase from Candida boidinii (CbFDH) ([Candida] boidinii) (protein)
chain: MKIVLVLYDAGKHAADEEKLYGCTENKLGIANWLKDQGHELITTSDKEGGNSVLDQHIPDADIIITTPFHPAYITKERIDKAKKLKLVVVAGVGSDHIDLDYINQTGKKISVLEVTGSNVVSVAEHVLMTMLVLVRNFVPAHEQIINHDWEVAAIAKDAYDIEGKTIATIGAGRIGYRVLERLVPFNPKELLYYDYQALPKDAEEKVGARRVENIEELVAQADIVTINAPLHAGTKGLINKELLSKFKKGAWLVNTARGAICVAEDVAAALESGQLRGYGGDVWFPQPAPKDHPWRDMRNKYGAGNAMTPHYSGTTLDAQTRYAEGTKNILESFFTGKFDYRPQDIILLNGEYITKAYGKHDKK

What was measured:
[1] = target: T1, Formate dehydrogenase from Candida boidinii (CbFDH); experiment: ITC and crystal structure of the ternary complex with azide at […] Å; assay type: binding
purified protein = substrate: O=CO; experiment: purified protein; assay type: biochemical, [Candida] boidinii; conditions: NAD+

Molecule	Kd [1] [µM]	kcat (purified protein) [s⁻¹]	kcat/Km (purified protein) [M⁻¹ s⁻¹]
NC(=O)c1ccc[n+]([C@@H]2O[C@H](COP(=O)([O-])OP(=O)(O)OC[C@H]3O[C@@H](n4cnc5c(N)ncnc54)[C@H](O)[C@@H]3O)[C@@H](O)[C@H]2O)c1 [NAD+]	92 ± 4	–	–
B1	–	5.6 ± 0.2	1400 ± 200
